The values that follow come from US20090169562A1 (CRUCELL HOLLAND B V, published 2009).

For test [1], the target named is T1, bovine serum albumin (BSA) (bovine, UniProt P02769 25-607).
T1 construct: Control antigen coated at 1% in PBS (pH 7.4); also called negative control antigen
Briefly: phage ELISA, BSA coated. The procedure: (§1) Selected single-chain phage antibodies that were obtained in the screens described above were validated in ELISA for specific enterococcal binding activity, i.e. binding to one or more enterococcal strains prepared as described supra. 2.5×10⁸ bacteria were coated overnight at 4° C. to Maxisorp™ ELISA plates in 50 μl 50 mM carbonate buffer, pH 9.6. As negative controls, the complex antigens 2% ELK and 1% BSA both in PBS (pH 7.4) were coated. Wells were washed in PBS containing 0.1% (v/v) Tween-20 and blocked with 300 μl PBS containing 2% ELK for at least 1 hour at room temperature. The selected single-chain phage antibodies were incubated for 15 minutes in an equal volume of PBS containing 2% ELK to obtain blocked phage antibodies. The plates were emptied and the blocked single-chain phage antibodies were added to the wells. Incubation was allowed to proceed for one hour at room temperature, the plates were washed in PBS containing 0.1% (v/v) Tween-20 and bound phage antibodies were detected using an anti-M13 antibody conjugated to peroxidase. Absorbance at 492 nm was measured using a spectrophotometer. As a control, the procedure was performed simultaneously without single-chain phage antibody and with a negative control single-chain phage antibody directed against West Nile virus envelope protein (SC04-374).
In general terms: ELISA stands for enzyme-linked immunosorbent assay.

In test [2] the target is T1, bovine serum albumin (BSA). Briefly: phage ELISA, 1% BSA coated, anti-M13-HRP detection. On the procedure: as §1

T1 sequence (P02769 25-607 limits assumed): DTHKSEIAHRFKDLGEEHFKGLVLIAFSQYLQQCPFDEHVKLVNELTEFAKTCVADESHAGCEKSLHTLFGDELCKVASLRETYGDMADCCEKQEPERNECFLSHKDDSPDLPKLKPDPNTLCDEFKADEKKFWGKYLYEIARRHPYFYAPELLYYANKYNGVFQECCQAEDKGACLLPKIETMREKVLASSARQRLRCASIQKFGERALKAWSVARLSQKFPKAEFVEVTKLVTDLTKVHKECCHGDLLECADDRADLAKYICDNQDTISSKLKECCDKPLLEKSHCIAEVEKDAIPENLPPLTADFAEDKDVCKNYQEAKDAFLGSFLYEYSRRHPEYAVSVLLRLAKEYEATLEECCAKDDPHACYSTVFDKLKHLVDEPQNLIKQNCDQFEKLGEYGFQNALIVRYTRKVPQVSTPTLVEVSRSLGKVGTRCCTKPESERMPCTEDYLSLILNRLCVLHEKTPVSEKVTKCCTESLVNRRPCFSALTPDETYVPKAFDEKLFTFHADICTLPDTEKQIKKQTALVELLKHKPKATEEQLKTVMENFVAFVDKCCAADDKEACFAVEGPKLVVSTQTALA

B1: SC06-409 (scFv)
scFv: EVQLVQSGAEVKKPGESLKISCKGSGYSFTNYWIGWVRQMPGKGLEWMGIIYPGDSDTRYSPSFQGQVTISADKSISTAYLQWSSLKASDTAMYYCARHTQNKNGMNTFDIWGQGTMVTVSSGTGGSGGTGSGTGGSTQSALTQPPSASGSPGQSVTISCTGTSSDIGGYNYVSWYQQHPGKAPKLMIYEVSNRPPGVSNRFSGSKSGNTASLTISGLQAEDEADYYCSSYSTTTTRVIFGGGTKLTVL
notes: Vl 139-249); also called single-chain phage antibody SC06-409
As for B1, the binding result in test [1] is reported as “no binding”. The OD492 nm in test [2] came to 0.055 OD492 nm.

B2: SC05-187 (scFv)
scFv: EVQLVQSGAEVKKPGESLKISCKGSGYSFTKYWIGWVRQMPGKGLEWMGIIYPGDSDTRYSPSFQGQVTISADKSISTAYLQWSSLKASDTAMYYCARGSGIATGNSFDSWGQGTLVTVSSGTGGSGGTGSGTGGSTQTVVTQEPSLTVSPGGTVTLTCASSTGAVTSGYYPNWFQQKPGQAPRALIYSTSKKHSWTPARFSGSLLGGRAALTLSGAQPEDEADYYCLLSYGGARVFGGGTKLTVL
notes: Vl 138-246); also called single-chain phage antibody SC05-187
Take B2: the binding result in test [1] was “no binding”. Besides, the OD492 nm in test [2] is 0.055 OD492 nm.

B3: SC06-432 (scFv)
scFv: QLQLQESGPGLVKPSQTLSLTCTVSGGSISSGGYYWSWIRQHPGKGLEWIGYIYYSGSTYYNPSLKSRVTISVDTSKNQFSLKLSSVTAADTAVYYCARERILDRMNDYWGQGTLVTVSSGTGGSGGTGSGTGGSTQSVVTQPPSVSGAPGQRVTISCTGSSSNIGAGYDVHWYQQLPGTAPKLLIYGNSNRPSGVPDRFSGSKSGTSASLAITGLQAEDEADYYCQSSDSSLNILFGGGTKLTVL
notes: Vl 137-246); also called single-chain phage antibody SC06-432
For B3, the binding result in test [1] is “no binding”. The OD492 nm in test [2] came to 0.059 OD492 nm.

B4: SC06-429 (scFv)
scFv: QVQLVQSGAEVKNPGESLKISCKGSGYTFTSYWIGWVRQMPGKGLEWMGSIYPGDSDTRYSPSFQGQVTISVDKSISTAYLQWSSLKASDTAMYYCARQYRAGSTTRFDPWGQGTLVTVSSGTGGSGGTGSGTGGSTDVVMTQSPLSLPVTPGEPASISCRSSQSLRHRNGNNYLDWYLQKPGQSPQLLIYLGSNRASGVPDRFSGSGSGTDFTLKISRVEAEDVGIYYCMQALQTPLTFGGGTKVEIK
notes: Vl 138-249); also called single-chain phage antibody SC06-429
Regarding B4, in test [1], the binding result was “no binding”. Also, the OD492 nm in test [2] turned out to be 0.068 OD492 nm.

B5: SC05-159 (scFv)
scFv: QVQLVQSGAEVKKPGATVKISCKVSGYTFTDYYMHWVQQAPGKGLEWMGLVDPEDGETIYAEKFQGRVTITADTSTDTAYMELSSLRSDDTAVYYCARAEVMTTINNWYFDLWGRGTLVTVSSGTGGSGGTGSGTGGSTSYVLTQPPSASGTPGQRVTISCSGSSSNIGSNNVSWYQQLPGTAPKLLIYSNNQRPSGVPDRFSGSKSGTSASLAISGLQSEDEADYYCAAWDDSLNGWVFGGGTKLTVL
notes: Vl 140-249); also called single-chain phage antibody SC05-159
B5: the binding result in test [1] is “no binding”. In test [2], this molecule had an OD492 nm of 0.06 OD492 nm.

B6: SC06-016 (scFv)
scFv: QVQLVQSGPEVKKPGASVTVSCKASGYSFSSYGISWVRQAPGQGLEWMGRIIPVGGNTLYSQMFQGRVTMTSDTSTSTVYLELSSLRSEDTAVYFCARDGGRWQFDYWGQGTLVTVSSGTGGSGGTGSGTGGSTDIQLTQSPSSVSASVGDRVTITCRASQGISNWLAWYQQKPGKAPELLIYAASSLQSGVPPRFSGSASGTDFTLTISSLQPEDFATYYCQQSKNFPYTFGQGTKVEIK
notes: Vl 135-241); also called single-chain phage antibody SC06-016
Consider B6, for which the binding result in test [1] was “no binding”. The molecule further displayed an OD492 nm in test [2] of 0.044 OD492 nm.

B7: SC06-415 (scFv)
scFv: EVQLVESGGGLVQPGRSLRLSCAASGFTFDDYAMHWVRQAPGKGLEWVSGISWNSGSIGYADSVKGRFTISRDNAKNSLYLQMNSLRAEDSAVYYCARGGQRFDFWGQGTLVTVSSGTGGSGGTGSGTGGSTQSALTQPPSASGSPGQSVTISCTGTSSDVGGYNYVSWYQQLPGKAPKLLIYDVNNRPSGVSNRFSGSKSGNTASLTISGLQAEDEAEYYCGSSVGSRLRIFGGGTKLTVL
notes: Vl 133-242); also called single-chain phage antibody SC06-415
As for B7, the binding result in test [1] is listed as “no binding”. In addition, the OD492 nm in test [2] was 0.044 OD492 nm.

B8: SC06-049 (scFv)
scFv: QVQLVQSGAEVKKPGESLKISCKGSGYSFTSYWIGWVRQMPGKGLEWMGIIYPGDSDTRYSPSFQGQVTISADKSIGTAYLQWSSLKASDTAMYYCARLFRVRGGHFDSWGQGTLVTVSSGTGGSGGTGSGTGGSTQSALTQPASVSGSPGQSITISCTGTNSDVGGYNYVSWYQQHPGKAPKLLIYDVTNRPSGVSNRFSASKSGNTASLTISGLQAEDEADYYCSSFTSSSTRVFGGGTKLTVL
notes: Vl 137-246); also called single-chain phage antibody SC06-049
Turning to B8, the binding result in test [1] is “no binding”. Further, in test [2], the OD492 nm amounted to 0.042 OD492 nm.

B9: SC06-043 (scFv)
scFv: EVQLVESGAEVKKPGESLKISCKGSGYSFTSYWIGWVRQMPGKGLEWMGIIYPGDSDTRYSPSFQGQVTISADKSISTAYLQWSSLKASDTAMYYCARRYCSGGTCSDGFDIWGQGTMVTVSSGTGGSGGTGSGTGGSTQSALTQPPSASGSPGQSVTISCTGTSSDVGGYNYVSWYQQHPGKAPKLMIYEVSKRPSGVPDRFSGSKSGNTASLTVSGLQAEDEADYYCSSYAGSNNLVFGGGTKLTVL
notes: Vl 140-249); also called single-chain phage antibody SC06-043
On to B9, for which the binding result in test [1] is given as “no binding”. The OD492 nm in test [2] is 0.045 OD492 nm.

B10: SC05-179 (scFv)
scFv: EVQLVESGGGLVKPGGSLGLSCAASGFFFSDYSMSWIRQAPGKGLEWLSNISGSGHSTKYAESMRGRITISRDNAKKSLSLQLNSLRAEDTAVYFCVRGGGYRMDVWGQGTTVTVSSGTGGSGGTGSGTGGSTQSALTQPRSVPGSPGQSVTISCTGTSSDVGGYNYVSWYQQHPGKAPKLMIYDVSKRPSGVPDRFSGSKSGNTASLTVSGLQAEDEADYYCSSYAGSNNFVVFGGGTKLTVL
notes: Vl 134-244); also called single-chain phage antibody SC05-179
As for B10, the binding result in test [1] is on record as “no binding”. Besides, the OD492 nm in test [2] was 0.045 OD492 nm.
